Measurements published in the supplement of paper PMC9170038.

Tested on: MS2 coat protein
Assay: apparent KD of MS2 coat protein; higher = weaker reporter binding
Conditions: Eterna round: R107
Outline: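 Titrations with SNAP-549-labelled MS2 coat protein ran in twofold steps from 0.7 or 1.5 nM to 3 µM, each step taking 0.8–1.5 h at the start and 10–20 min toward the end. The targets were designed RNA switches transcribed on-chip from Illumina sequencing clusters, held in 100 mM Tris-HCl pH 7.5, 80 mM KCl, 4 mM MgCl2, without or with constant ligand. Apparent KD was taken per design as the median of normalised cluster binding-curve fits.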

[1] = input ligand: theophylline 20 uM
[2] = input ligand: theophylline 2 mM
[3] = input ligand: tryptophan 2.4 mM

| Sequence | apparent KD of MS2 coat protein (input ligand: arginine 13.2 mM) [nM] | apparent KD of MS2 coat protein [1] [nM] | apparent KD of MS2 coat protein [2] [nM] | apparent KD of MS2 coat protein (input ligand: none) [nM] | apparent KD of MS2 coat protein [3] [nM] |
| --- | --- | --- | --- | --- | --- |
| ACAUUGCGCUCGGCCGCCACUGGCUAUAGAUUUAUAGCAUUAAUGAACAUGAGGAUCACCCAUGUCAGGACCGGGAGCGAACCAU [SSTryp B #8] | 12.1 | 17.2 | 13.2 | – | – |
| AAUACAUGAGGAUCACCCAUGUAAGCUGAAGGAGCGCUGGAAACAGCAGGUAGGUCGCAGCUGCGACCUUGGUGAUCUAGGUCGC [(M1)-(M2)-(Arg1)-(Arg2)-(A)'-(M)'-(A)''_Design7] | 17.5 | 35.8 | 46.7 | 36.6 | 24.3 |
| AUACAUGAGGAUCACCCAUGUCAUACAGAAGGAGCGUCACAUAAGACAGGUAGGUCGCUGAUAAAUGGAUUAUAGUUUAUGAUUA [JR_SSArginiA_Sub016] | 17.5 | 29.6 | 20.3 | 18.6 | 18.7 |
| AAUCGGAGAUGAAGGAGCGCGUACAUGAGGAUCACCCAUGUAUCAAAGCUUCUCCCGUGUAUGCAGGUAGGUCGCAUUUCCACGU [Ceriedan] | 10.1 | 13 | 9.18 | 9.12 | 9.9 |
| AGAACUUUGGUGGAUACCAGCUUCUGGCCAUCCUUCAAAUACAUGAGGAUCACCCAUGUUAGCCCUUGGCAGCCAACAUAGACUG [theeternabot_exclusion_MS2_Theo_B_44] | 21.7 | 33 | – | – | 21.6 |
| ACAUGAGGAUCACCCAUGUAAUAAUCAGAAGGAGCGUGGAAUAACACAGGUAGGUCGCUGAUGUUUUGUUAAAAUUAUUCGUGAA [JR_SSArginiA_Sub002] | 11.7 | 16.9 | 12.9 | 13.5 | 14.3 |
| ACAUUUAACUGAAGGAGCGUGAUUAACAUGAGGAUCACCCAUGUAACUUAGAUGCUUAUAUCACAGGUAGGUCGCAGACUAAUGA [JR_ExcArginiB_Sub011] | 13.9 | 18.3 | 14.9 | 13.6 | 15.5 |
| AUCCACAGCCGAAGGAGCGCUAUAGGAUGACAUGAGGAUCACCCAUGUGUGUGAUGUGGAUAGCAGGUAGGUCGCGGAGUGGAUU [Exclusion - Arginine B (Freestyle 10)] | 73 | 92.5 | 29.1 | 29.5 | 26.3 |
| GAAUAUUACAUGAGGAUCACCCAUGUAGAUACCAGCCUUGAUUGUGGCCCUUGGCAGCUACGCCGUGAAUGCCUCAGUUGCUUAC [Atidi] | 36.8 | 121 | – | – | 72 |
| UUCGUUUGCGGAAGGAGCGACGGACAUCGGUGACCCACGCACAUGAGGAUCACCCAUGUACGUCAGGUAGGUCGCCGCUAAGAGU [XArg-B4] | 20.3 | 47.4 | 41.3 | 17.4 | 12.4 |
| ACAUGAGGAUCACCCAUGUAUUACCGGGAAGGAGCGCGUGAAAACGCAGGUAGGUCGCUCGGCGUCGUGCUGUAAAGCACGACGA [#1 Same State - Arginine A Attempt #25 (HarryS)] | 13.3 | 16.2 | 15.6 | 11.5 | 13.4 |
| UGACAUUGCUCAGAUACCAGACAUGAGCAUCAGCCAUGUGCCAACAAGUACAUAAUAAAUGUCCCUUGGCAGCUGAGCAAUGUCU [TheoBX 16 #MS2Left #Theo2 #AlternativeMS2] | 14.3 | 20.5 | 149 | 13 | 12.7 |
| GCUUGGGUCGCACGGCCCUGGCGGUGCGAUACCAGCACGGUAACGUGCCCUUGGCAGCGCACAUGAGGAUCACCCAUGUGGUGCG [#1 Exclusion - Theophylline A Attempt #23 (HarryS)] | 9.42 | 25.6 | 264 | 12.6 | 12.4 |
| ACACGUGAGGAUCAUCCAUGUGCCCAUGAAGGAGCGUGGGAAACCACAGGUAGGUCGCAUGACAUGAGGAUCACCCAUGUUUAUU [#04 Exclusion - Arginine A] | 43.1 | 109 | 105 | 86.9 | 91 |
| CUUGGUAGAUCCUAGCUGCCAAGAGGUGAUACCAGCAUCGAAAGAUGCCCUUGGCAGCACCAACAUGAGGAUCACCCAUGUAAUA [(MT)''-(M)'-(T')-(Theo)-(Ms2)_Design1/22_4] | 24.3 | 178 | – | – | 77.4 |
| CGCAACCCACAUGAGGAUCACCCAUGUGAAGGAGCGGCGAAUAAGCCAGGUAGGUCGCGCAUGAAUAAAUCAUGUAGGAAGCGAA [XArg-A 7 V1&2] | 18 | 27.8 | 28 | 20.1 | 22.5 |
